Experiment in all cases: cell-based or functional assay
The target in assay [1] is CD176 PV1-tandem CaffVHH-L1-iCre-271C-NLS-BGHpA.
For assay [2], the target named is T1, CD244 PV1-GAI-L1-RfxCas13d-560C-NLS-BGHpA.
T1 sequence: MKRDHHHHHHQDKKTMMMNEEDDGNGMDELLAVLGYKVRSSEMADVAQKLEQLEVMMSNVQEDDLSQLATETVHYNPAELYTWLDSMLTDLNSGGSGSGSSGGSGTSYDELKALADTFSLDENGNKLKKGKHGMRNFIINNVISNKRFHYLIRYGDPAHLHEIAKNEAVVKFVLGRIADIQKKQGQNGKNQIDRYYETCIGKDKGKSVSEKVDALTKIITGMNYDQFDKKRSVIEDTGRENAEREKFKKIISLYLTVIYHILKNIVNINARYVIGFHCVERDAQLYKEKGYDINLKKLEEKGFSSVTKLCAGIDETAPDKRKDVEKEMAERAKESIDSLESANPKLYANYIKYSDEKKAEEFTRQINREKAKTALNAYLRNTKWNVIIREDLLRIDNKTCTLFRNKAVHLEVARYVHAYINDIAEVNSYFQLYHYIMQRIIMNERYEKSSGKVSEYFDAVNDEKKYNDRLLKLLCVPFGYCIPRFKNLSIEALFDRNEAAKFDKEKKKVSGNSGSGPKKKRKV

In assay [3] the target is T2, CD246 PV1-GAI-L1-RfxCas13d-566C-NLS-BGHpA.
T2 sequence: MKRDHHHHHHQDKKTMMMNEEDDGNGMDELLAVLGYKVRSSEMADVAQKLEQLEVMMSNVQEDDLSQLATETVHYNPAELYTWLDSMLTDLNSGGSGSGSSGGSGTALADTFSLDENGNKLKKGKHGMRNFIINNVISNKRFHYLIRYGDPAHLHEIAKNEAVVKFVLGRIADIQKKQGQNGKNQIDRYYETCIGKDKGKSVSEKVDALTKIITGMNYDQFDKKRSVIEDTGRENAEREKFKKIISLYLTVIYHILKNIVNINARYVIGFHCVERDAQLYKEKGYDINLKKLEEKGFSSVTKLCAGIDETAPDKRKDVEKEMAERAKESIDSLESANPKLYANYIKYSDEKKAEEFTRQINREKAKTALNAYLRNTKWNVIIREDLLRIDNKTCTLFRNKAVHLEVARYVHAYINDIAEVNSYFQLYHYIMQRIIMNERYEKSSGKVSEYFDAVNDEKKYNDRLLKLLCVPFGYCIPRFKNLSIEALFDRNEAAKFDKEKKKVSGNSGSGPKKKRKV

The target in assay [4] is T3, CD374 PV1-RfxCas13d-560C-NLS-BGHpA.
T3 sequence: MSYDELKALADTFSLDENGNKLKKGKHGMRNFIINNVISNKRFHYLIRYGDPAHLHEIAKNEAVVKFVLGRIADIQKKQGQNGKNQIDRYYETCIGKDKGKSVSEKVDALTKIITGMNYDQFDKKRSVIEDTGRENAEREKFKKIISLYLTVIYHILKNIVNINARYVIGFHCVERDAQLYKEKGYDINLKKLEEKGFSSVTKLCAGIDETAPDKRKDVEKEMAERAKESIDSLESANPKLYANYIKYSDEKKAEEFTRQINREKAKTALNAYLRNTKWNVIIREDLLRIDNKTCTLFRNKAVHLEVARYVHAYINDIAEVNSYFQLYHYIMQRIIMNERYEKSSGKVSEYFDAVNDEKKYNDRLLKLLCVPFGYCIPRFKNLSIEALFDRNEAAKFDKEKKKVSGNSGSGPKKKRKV

Assay [5] concerns the target CD92 PV1-CaffVHH-L1-iCre-271C-NLS-BGHpA.

Some results are limits rather than exact numbers.

Chain of CD92 PV1-CaffVHH-L1-iCre-271C-NLS-BGHpA (chain, as listed by the source): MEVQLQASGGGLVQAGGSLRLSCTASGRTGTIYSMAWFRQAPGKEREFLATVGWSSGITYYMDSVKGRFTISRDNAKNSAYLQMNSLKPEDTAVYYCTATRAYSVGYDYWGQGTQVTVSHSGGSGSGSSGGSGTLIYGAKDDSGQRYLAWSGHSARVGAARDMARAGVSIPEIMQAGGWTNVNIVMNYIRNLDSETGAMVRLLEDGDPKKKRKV
Chain of CD176 PV1-tandem CaffVHH-L1-iCre-271C-NLS-BGHpA (chain, as listed by the source): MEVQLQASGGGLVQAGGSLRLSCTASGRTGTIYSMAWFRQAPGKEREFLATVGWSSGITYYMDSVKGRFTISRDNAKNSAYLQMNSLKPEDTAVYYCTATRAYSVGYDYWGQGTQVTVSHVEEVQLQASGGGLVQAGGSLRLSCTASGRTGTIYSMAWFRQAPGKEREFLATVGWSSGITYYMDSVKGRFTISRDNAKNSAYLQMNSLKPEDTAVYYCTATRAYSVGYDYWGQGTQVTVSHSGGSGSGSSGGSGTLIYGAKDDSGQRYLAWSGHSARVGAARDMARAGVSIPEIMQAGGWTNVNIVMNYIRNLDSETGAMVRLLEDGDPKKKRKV

B1: CD175 PV1-iCre-N270-L1-tandem CaffVHH-NLS-BGHpA (protein)
chain: MSNLLTVHQNLPALPVDATSDEVRKNLMDMFRDRQAFSEHTWKMLLSVCRSWAAWCKLNNRKWFPAEPEDVRDYLLYLQARGLAVKTIQQHLGQLNMLHRRSGLPRPSDSNAVSLVMRRIRKENVDAGERAKQALAFERTDFDQVRSLMENSDRCQDIRNLAFLGIAYNTLLRIAEIARIRVKDISRTDGGRMLIHIGRTKTLVSTAGVEKALSLGVTKLVERWISVSGVADDPNNYLFCRVRKNGVAAPSATSQLSTRALEGIFEATHRSGGSGSGSSGGSGTMEVQLQASGGGLVQAGGSLRLSCTASGRTGTIYSMAWFRQAPGKEREFLATVGWSSGITYYMDSVKGRFTISRDNAKNSAYLQMNSLKPEDTAVYYCTATRAYSVGYDYWGQGTQVTVSHVEEVQLQASGGGLVQAGGSLRLSCTASGRTGTIYSMAWFRQAPGKEREFLATVGWSSGITYYMDSVKGRFTISRDNAKNSAYLQMNSLKPEDTAVYYCTATRAYSVGYDYWGQGTQVTVSHPKKKRKV
On to B1, for which, in assay [1], the caffeine concentration at maximum recombination efficiency was determined as 20 µM caffeine and the recombination against the single CaffVHH version, same induction conditions was under 13 fold.

B2: CD243 PV1-RfxCas13d-N559-L1-GID-NLS-BGHpA (protein)
chain: MIEKKKSFAKGMGVKSTLVSGSKVYMTTFAEGSDARLEKIVEGDSIRSVNEGEAFSAEMADKNAGYKIGNAKFSHPKGYAVVANNPLYTGPVQQDMLGLKETLEKRYFGESADGNDNICIQVIHNILDIEKILAEYITNAAYAVNNISGLDKDIIGFGKFSTVYTYDEFKDPEHHRAAFNNNDKLINAIKAQYDEFDNFLDNPRLGYFGQAFFSKEGRNYIINYGNECYDILALLSGLRHWVVHNNEEESRISRTWLYNLDKNLDNEYISTLNYLYDRITNELTNSFSKNSAANVNYIAETLGINPAEFAEQYFRFSIMKEQKNLGFNITKLREVMLDRKDMSEIRKNHKVFDSIRTKVYTMMDFVIYRYYIEEDAKVAAANKSLPDNEKSLSEKDIFVINLRGSFNDDQKDALYYDEANRIWRKLENIMHNIKEFRGNKTREYKKKDAPRLPRILPAGRDVSAFSKLMYALTMFLDGKEINDLLTTLINKFDNIQSFLKVMPLIGVNAKFVEEYAFFKDSAKIADELRLIKSFARMGEPIADARRAMYIDAIRILGTNLSGGSGSGSSGGSGTMAASDEVNLIESRTVVPLNTWVLISNFKVAYNILRRPDGTFNRHLAEYLDRKVTANANPVDGVFSFDVLIDRRINLLSRVYRPAYADQEQPPSILDLEKPVDGDIVPVILFFHGGSFAHSSANSAIYDTLCRRLVGLCKCVVVSVNYRRAPENPYPCAYDDGWIALNWVNSRSWLKSKKDSKVHIFLAGDSSGGNIAHNVALRAGESGIDVLGNILLNPMFGGNERTESEKSLDGKYFVTVRDRDWYWKAFLPEGEDREHPACNPFSPRGKSLEGVSFPKSLVVVAGLDLIRDWQLAYAEGLKKAGQEVKLMHLEKATVGFYLLPNNNHFHNVMDEISAFVNAECPKKKRKV
In assay [2], B2 had a basal knockdown of mCherry induced by gRNA, no gibberellin of 10 to 20% and a drug-induced knockdown of mCherry with gRNA of over 75%.

B3: CD245 PV1-RfxCas13d-N565-L1-GID-NLS-BGHpA (protein)
chain: MIEKKKSFAKGMGVKSTLVSGSKVYMTTFAEGSDARLEKIVEGDSIRSVNEGEAFSAEMADKNAGYKIGNAKFSHPKGYAVVANNPLYTGPVQQDMLGLKETLEKRYFGESADGNDNICIQVIHNILDIEKILAEYITNAAYAVNNISGLDKDIIGFGKFSTVYTYDEFKDPEHHRAAFNNNDKLINAIKAQYDEFDNFLDNPRLGYFGQAFFSKEGRNYIINYGNECYDILALLSGLRHWVVHNNEEESRISRTWLYNLDKNLDNEYISTLNYLYDRITNELTNSFSKNSAANVNYIAETLGINPAEFAEQYFRFSIMKEQKNLGFNITKLREVMLDRKDMSEIRKNHKVFDSIRTKVYTMMDFVIYRYYIEEDAKVAAANKSLPDNEKSLSEKDIFVINLRGSFNDDQKDALYYDEANRIWRKLENIMHNIKEFRGNKTREYKKKDAPRLPRILPAGRDVSAFSKLMYALTMFLDGKEINDLLTTLINKFDNIQSFLKVMPLIGVNAKFVEEYAFFKDSAKIADELRLIKSFARMGEPIADARRAMYIDAIRILGTNLSYDELKSGGSGSGSSGGSGTMAASDEVNLIESRTVVPLNTWVLISNFKVAYNILRRPDGTFNRHLAEYLDRKVTANANPVDGVFSFDVLIDRRINLLSRVYRPAYADQEQPPSILDLEKPVDGDIVPVILFFHGGSFAHSSANSAIYDTLCRRLVGLCKCVVVSVNYRRAPENPYPCAYDDGWIALNWVNSRSWLKSKKDSKVHIFLAGDSSGGNIAHNVALRAGESGIDVLGNILLNPMFGGNERTESEKSLDGKYFVTVRDRDWYWKAFLPEGEDREHPACNPFSPRGKSLEGVSFPKSLVVVAGLDLIRDWQLAYAEGLKKAGQEVKLMHLEKATVGFYLLPNNNHFHNVMDEISAFVNAECPKKKRKV
With B3, in assay [3], the basal knockdown of mCherry induced by gRNA, no gibberellin was in the range of 10 to 20% and the drug-induced knockdown of mCherry with gRNA is over 75%.

B4: CD373 PV1-RfxCas13d-N559-NLS-BGHpA (protein)
chain: MIEKKKSFAKGMGVKSTLVSGSKVYMTTFAEGSDARLEKIVEGDSIRSVNEGEAFSAEMADKNAGYKIGNAKFSHPKGYAVVANNPLYTGPVQQDMLGLKETLEKRYFGESADGNDNICIQVIHNILDIEKILAEYITNAAYAVNNISGLDKDIIGFGKFSTVYTYDEFKDPEHHRAAFNNNDKLINAIKAQYDEFDNFLDNPRLGYFGQAFFSKEGRNYIINYGNECYDILALLSGLRHWVVHNNEEESRISRTWLYNLDKNLDNEYISTLNYLYDRITNELTNSFSKNSAANVNYIAETLGINPAEFAEQYFRFSIMKEQKNLGFNITKLREVMLDRKDMSEIRKNHKVFDSIRTKVYTMMDFVIYRYYIEEDAKVAAANKSLPDNEKSLSEKDIFVINLRGSFNDDQKDALYYDEANRIWRKLENIMHNIKEFRGNKTREYKKKDAPRLPRILPAGRDVSAFSKLMYALTMFLDGKEINDLLTTLINKFDNIQSFLKVMPLIGVNAKFVEEYAFFKDSAKIADELRLIKSFARMGEPIADARRAMYIDAIRILGTNLPKKKRKV
Turning to B4, the gRNA induced knockdown of mCherry without CID domains in assay [4] was under 80%.

B5: CD91 PV1-iCre-N270-L1-CaffVHH-NLS-BGHpA (protein)
chain: MSNLLTVHQNLPALPVDATSDEVRKNLMDMFRDRQAFSEHTWKMLLSVCRSWAAWCKLNNRKWFPAEPEDVRDYLLYLQARGLAVKTIQQHLGQLNMLHRRSGLPRPSDSNAVSLVMRRIRKENVDAGERAKQALAFERTDFDQVRSLMENSDRCQDIRNLAFLGIAYNTLLRIAEIARIRVKDISRTDGGRMLIHIGRTKTLVSTAGVEKALSLGVTKLVERWISVSGVADDPNNYLFCRVRKNGVAAPSATSQLSTRALEGIFEATHRSGGSGSGSSGGSGTMEVQLQASGGGLVQAGGSLRLSCTASGRTGTIYSMAWFRQAPGKEREFLATVGWSSGITYYMDSVKGRFTISRDNAKNSAYLQMNSLKPEDTAVYYCTATRAYSVGYDYWGQGTQVTVSHPKKKRKV
In assay [5], B5 returned a Cre reporter expression, share of transfected cells, 25 uM caffeine for 5 hours (% of transfected cells) of 30; a Cre reporter turned on, share of transfected cells, caffeine at least 50 uM, induction at least 5 hours (% of transfected cells) of 38; a Cre reporter turned on, share of transfected cells, with caffeine, 48 hours (% of transfected cells) of over 80; a caffeine concentration able to turn on Cre activity and generate reporter expression in 48 hours of 0.1 µM caffeine. Further, the caffeine concentration at which similar, if not less, recombination efficiency was reached (single CaffVHH) in assay [5] was determined as 500 µM caffeine.

These data come from patent US20220025381A1.
